Test results from paper PMC11969024 (2025).

B1: peptide HD2 (from tick evasin EVA4) / CXCL14 (biotinylated, synthetic) (parent complex)
chain 1: EEDDYTAYAPLTCYFT
chain 2: SKCKCSRKGPKIRYSDVKKLEMKPKYPHCEEKMVIITTKSVSRYRGQEHCLHPKLQSTKRFIKWYNAWNEKRRVYEE

Variants of: B1

Variant	enrichment
chain 1 EEDDYTAYAPLTCYAT	-5.37 log2 (difference from the parental peptide)
chain 1 EEDDYTAYAPLTCYRT	-5.53 log2 (difference from the parental peptide)
chain 1 EEDDYTAYAPLTCYQT	1.93 log2 (difference from the parental peptide)
chain 1 EEDDYTAYAPLHCYFT	-1.2 log2 (difference from the parental peptide)
chain 1 EEDDYTAYAPLSCYFT	-7.83 log2 (difference from the parental peptide)
chain 1 EEDDYTAYAPLFCYFT	2.31 log2 (difference from the parental peptide)
chain 1 EEDDYTAYAPLRCYFT	-7.34 log2 (difference from the parental peptide)
chain 1 EEDDYTAYAPLTDYFT	-5.83 log2 (difference from the parental peptide)
chain 1 EEDDYTAYAPLTGYFT	-8.69 log2 (difference from the parental peptide)
chain 1 EEDDYTAYAPLTAYFT	-6.89 log2 (difference from the parental peptide)
chain 1 EEDDYTAYAPLTCYFN	-3.97 log2 (difference from the parental peptide)
chain 1 EEDDYTAYAPLTCYFA	-3.04 log2 (difference from the parental peptide)
chain 1 EEDDYTAYAPLTCYFQ	-5.09 log2 (difference from the parental peptide)
chain 1 EEDDYTAYAPDTCYFT	0.52 log2 (difference from the parental peptide)
chain 1 EEDDYTAYAPITCYFT	0.571 log2 (difference from the parental peptide)
chain 1 EEDDYTAYAPHTCYFT	3.17 log2 (difference from the parental peptide)
chain 1 EEDDYTAYAPFTCYFT	1.48 log2 (difference from the parental peptide)
chain 1 EEDDYTAYAPNTCYFT	-0.349 log2 (difference from the parental peptide)
chain 1 EEDDYTAYAPQTCYFT	-4.52 log2 (difference from the parental peptide)

Variant	enrichment
chain 1 EEDDYTAYAALTCYFT	2.1 log2 (difference from the parental peptide)
chain 1 EEDDYTAYAVLTCYFT	0.331 log2 (difference from the parental peptide)
chain 1 EEDIYTAYAPLTCYFT	0.635 log2 (difference from the parental peptide)
chain 1 EEDNYTAYAPLTCYFT	1.31 log2 (difference from the parental peptide)
chain 1 EEDPYTAYAPLTCYFT	1.82 log2 (difference from the parental peptide)
chain 1 EEDWYTAYAPLTCYFT	-5.85 log2 (difference from the parental peptide)
chain 1 EEDEYTAYAPLTCYFT	-4.2 log2 (difference from the parental peptide)
chain 1 EEDDYTAYDPLTCYFT	-5.49 log2 (difference from the parental peptide)
chain 1 EEDDYTAYEPLTCYFT	-4.09 log2 (difference from the parental peptide)
chain 1 EEDDYTAYWPLTCYFT	1.99 log2 (difference from the parental peptide)
chain 1 EEDDYTAYSPLTCYFT	-1.59 log2 (difference from the parental peptide)
chain 1 EEEDYTAYAPLTCYFT	-1.97 log2 (difference from the parental peptide)
chain 1 EEPDYTAYAPLTCYFT	-5.77 log2 (difference from the parental peptide)
chain 1 EETDYTAYAPLTCYFT	-5.87 log2 (difference from the parental peptide)
chain 1 YEDDYTAYAPLTCYFT	0.958 log2 (difference from the parental peptide)
chain 1 TEDDYTAYAPLTCYFT	0.267 log2 (difference from the parental peptide)
chain 1 LEDDYTAYAPLTCYFT	0.456 log2 (difference from the parental peptide)
chain 1 EEDDYTAYAPLTCHFT	2.79 log2 (difference from the parental peptide)
chain 1 EEDDYTAYAPLTCWFT	-6.55 log2 (difference from the parental peptide)

Variant	enrichment
chain 1 EEDDYQAYAPLTCYFT	0.84 log2 (difference from the parental peptide)
chain 1 EEDDYFAYAPLTCYFT	0.389 log2 (difference from the parental peptide)
chain 1 EEDDYDAYAPLTCYFT	3.46 log2 (difference from the parental peptide)
chain 1 EEDDYRAYAPLTCYFT	3.99 log2 (difference from the parental peptide)
chain 1 EEDDYGAYAPLTCYFT	4.19 log2 (difference from the parental peptide)
chain 1 EEDDYIAYAPLTCYFT	0.467 log2 (difference from the parental peptide)
chain 1 EEDDYTQYAPLTCYFT	-3.16 log2 (difference from the parental peptide)
chain 1 EEDDYTIYAPLTCYFT	0.79 log2 (difference from the parental peptide)
chain 1 EEDDYTDYAPLTCYFT	3.18 log2 (difference from the parental peptide)
chain 1 EEDDYTNYAPLTCYFT	2.93 log2 (difference from the parental peptide)
chain 1 EEDDYTMYAPLTCYFT	-3.2 log2 (difference from the parental peptide)
chain 1 ESDDYTAYAPLTCYFT	0.196 log2 (difference from the parental peptide)
chain 1 EDDDYTAYAPLTCYFT	0.377 log2 (difference from the parental peptide)
chain 1 EWDDYTAYAPLTCYFT	0.435 log2 (difference from the parental peptide)
chain 1 ETDDYTAYAPLTCYFT	-2.03 log2 (difference from the parental peptide)
chain 1 EEDDYTAVAPLTCYFT	3.87 log2 (difference from the parental peptide)
chain 1 EEDDYTAWAPLTCYFT	0.649 log2 (difference from the parental peptide)
chain 1 EEDDYTAIAPLTCYFT	-6.06 log2 (difference from the parental peptide)
